The values below come from patent publication US20260184775A1 (Chugai, published 2026).

In assay [1] the target is T1, recombinant mouse latent TGF-beta 1 (Flag-tagged mouse latent TGF-beta 1) (mouse, UniProt P04202 34-390).
T1 construct: also called mouse recombinant latent TGF-beta 1
Kind of assay: SPR, Biacore T200, 37 C, pH 7.4; antibody captured by anti-human Fc, latent TGF-beta 1 at 3.125 to 50 nM as analyte; 1:1 model. Here is the method:
(§1) The affinities of anti-latent TGF-beta 1 antibodies binding to human or mouse latent TGF-beta 1 at pH 7.4 were determined at 37 degrees C. using Biacore T200 instrument (GE Healthcare). Anti-human Fc (GE Healthcare) was immobilized onto all flow cells of a CM4 sensor chip using an amine coupling kit (GE Healthcare). All antibodies and analytes were prepared in ACES pH 7.4 containing 20 mM ACES, 150 mM NaCl, 1.2 mM CaCl₂), 0.05% Tween 20, 0.005% NaN3. Each antibody was captured onto the sensor surface by anti-human Fc. Antibody capture levels were aimed at 300 resonance unit (RU). For TBA865 and TBA873, recombinant human or mouse latent TGF-beta 1 was injected at 12.5 to 200 nM prepared by two-fold serial dilution, followed by dissociation. For TBS139 and TBS182, recombinant human or mouse latent TGF-beta 1 was injected at 3.125 to 50 nM prepared by two-fold serial dilution, followed by dissociation. The sensor surface was regenerated each cycle with 3M MgCl2.
(Surface plasmon resonance follows binding to a sensor surface in real time, without labels.)

Assay [2] deals with T2, recombinant human latent TGF-beta 1 (Flag-tagged human latent TGF-beta 1) (human, UniProt P01137 34-390).
T2 construct: Latent form: LAP plus mature TGF-beta 1; also called human recombinant latent TGF-beta 1; SLC
In words: SPR, Biacore T200, 37 C, pH 7.4; antibody captured by anti-human Fc, latent TGF-beta 1 injected at 3.125 to 50 nM. As for the experimental part: as §1

T1 sequence (P04202 other isoform, or with tags, fused parts or gaps limits assumed): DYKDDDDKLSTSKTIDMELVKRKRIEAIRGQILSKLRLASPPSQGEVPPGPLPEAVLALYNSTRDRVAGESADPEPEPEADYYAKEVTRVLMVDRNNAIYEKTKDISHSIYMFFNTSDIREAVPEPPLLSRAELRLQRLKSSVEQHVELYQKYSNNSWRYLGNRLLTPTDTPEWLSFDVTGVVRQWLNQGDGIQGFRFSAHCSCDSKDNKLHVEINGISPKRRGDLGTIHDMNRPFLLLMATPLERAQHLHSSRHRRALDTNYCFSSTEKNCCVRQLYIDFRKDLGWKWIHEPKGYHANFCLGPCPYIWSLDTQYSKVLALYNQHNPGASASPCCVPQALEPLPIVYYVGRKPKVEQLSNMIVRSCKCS
T2 sequence (P01137 other isoform, or with tags, fused parts or gaps limits assumed): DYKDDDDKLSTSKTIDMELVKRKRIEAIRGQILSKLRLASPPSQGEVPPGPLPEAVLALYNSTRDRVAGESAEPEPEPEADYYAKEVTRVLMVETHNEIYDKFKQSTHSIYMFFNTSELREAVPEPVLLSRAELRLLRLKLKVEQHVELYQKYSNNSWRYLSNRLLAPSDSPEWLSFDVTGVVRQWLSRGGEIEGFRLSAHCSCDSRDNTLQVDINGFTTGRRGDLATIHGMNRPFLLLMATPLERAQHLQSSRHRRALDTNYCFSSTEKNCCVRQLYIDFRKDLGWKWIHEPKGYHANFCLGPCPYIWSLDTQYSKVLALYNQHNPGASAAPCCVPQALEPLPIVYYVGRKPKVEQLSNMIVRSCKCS

B1: TBS182 (antibody, V domains shown)
VH: QSLEESGGDLVKPGASLTLTCTASGFSFSRSYYMCWVRQAPGKGLEWIACIYGGSSGSTWYASWAKGRFTISKTSSTTVTLQMTSLTAADTATYFCARDIGNYYRWWGPGTLVTVSS
VL: AVVLTQTTSPVSAPVGGTVTIKCQASKNIYSLLAWYQQKPGQPPKLLIYDASTLASGVPSRFKGSGSGTQFTLTISDLECADAATYYCQSYYDSSSSADLSTFGGGTEVVVKR
The Kd is the constant that tells how readily two partners part at equilibrium. The term koff denotes the first-order rate constant of dissociation. A word on the kon: it is the second-order rate constant of association. Turning to B1, in assay [1], the Kd amounted to 0.0482 nM, the koff was found to be 5.32e-05 s⁻¹ and the on-rate constant (kon) is 1.1e+06 M⁻¹ s⁻¹. In assay [2], the binding result is reported as “no binding (tested: 50 nM)”.
